Source: paper PMC8232673, “Hybrid-Type SELEX for the Selection of Artificial Nucleic Acid Aptamers Exhibiting Cell Internalization Activity”

Experiments:
IgG1 Fc = IgG1 Fc (Homo sapiens (Human), UniProt P01857 104-328, glycosylated); experiment: capillary electrophoresis; 20 mM Tris pH 7.4, 10 mM NaCl, 1 mM MgCl2, 0.05% Tween 20, 37 C; conditions: tags: His; chain copies: 2; label: 5'-FAM
[1] = target: TROP2 FcHis (human TROP2 fused to IgG1 FcHis) (human, UniProt P09758 27-274+P01857:100-328, internal_change); experiment: capillary electrophoresis; 10 nM DNA, 4-fold protein; 20 mM Tris-HCl pH 7.4, 10 mM NaCl, 1 mM MgCl2, 0.05% Tween 20; 10 nM aptamer, 37 °C 30 min, then held at 15 °C; CE running buffer 100 mM sodium borate pH 8.35; conditions: protein: commercial; IgG1 Fc-His fusion; chain copies: 2; label: 5' FAM
[2] = target: FcHis (human IgG1 Fc-His, counter-target for specificity) (human, UniProt P01857 100-328); experiment: as above; conditions: protein: commercial; tags: His; chain copies: 2; label: 5' FAM

TROP2 FcHis (human TROP2 fused to IgG1 FcHis), sequence (P09758 other isoform, or with tags, fused parts or gaps): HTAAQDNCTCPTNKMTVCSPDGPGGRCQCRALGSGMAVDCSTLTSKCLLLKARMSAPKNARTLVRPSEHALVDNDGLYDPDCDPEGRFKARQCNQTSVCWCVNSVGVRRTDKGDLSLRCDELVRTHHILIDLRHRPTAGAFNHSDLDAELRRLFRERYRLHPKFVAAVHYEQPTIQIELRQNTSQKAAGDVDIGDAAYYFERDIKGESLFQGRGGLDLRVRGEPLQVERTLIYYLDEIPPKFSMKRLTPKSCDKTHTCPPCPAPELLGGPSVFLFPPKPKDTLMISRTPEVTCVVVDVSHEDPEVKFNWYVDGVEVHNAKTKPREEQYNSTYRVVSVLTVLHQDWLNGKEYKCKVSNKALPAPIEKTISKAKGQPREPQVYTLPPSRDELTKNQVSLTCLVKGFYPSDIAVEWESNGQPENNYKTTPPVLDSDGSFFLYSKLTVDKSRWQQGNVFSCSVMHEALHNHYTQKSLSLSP

B1: Tac-A5 (ssDNA)
DNA: TCGCCTTGCCGGATCGCAGATCTGTTCCGTGTTCGTTCCTTTCCTTGTTGTGGTCCGTGAGCCTGACACC
modifications: every T at positions 21-70 is 5-[(3-indolyl)propionamide-N-allyl]-dU (Utrp); T in 5' primer region (1-20) natural
IgG1 Fc
  Kd: > 1 µM

B2: ssDNA_neg (ssDNA)
DNA: TCGCCTTGCCGGATCGCAGACTTCCCCCCACTCCACTTCTTACTCCTTTCTGGTCCGTGAGCCTGACACC
[1]
  binding result: no binding
[2]
  binding result: no binding
